Reference: patent publication US20050049403A1 (CAMBRIDGE ANTIBODY TECHNOLOGY, published 2005)

Assays:
[1] = biological target: T1, recombinant human TGFβ2 (human, UniProt P61812 303-414); experiment: cell-based or functional assay
T1 sequence (looked up): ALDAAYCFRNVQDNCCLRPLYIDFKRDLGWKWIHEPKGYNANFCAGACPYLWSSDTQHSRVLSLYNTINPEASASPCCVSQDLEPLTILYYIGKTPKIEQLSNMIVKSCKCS

[2] = biological target: T1, recombinant human TGFβ2; experiment: BIAcore 2000, koff divided by kon
Description: To determine the kinetic parameters, a series of dilutions of the antibody samples was made in HBS from about 500 μg/ml down to less than 1 μg/ml, usually through doubling dilutions. After the antibody has been injected over the antigen surface, the surface is washed with HBS, then regenerated by stripping off the bound antibody with a pulse of 100 mM HCl. At the higher concentrations of antibody the antigen on the chip surface is saturated, and the off rate is determined on washing with buffer in the dissociation phase. For determination of the on-rate, lower concentrations of antibody are used, giving a linear binding phase in the sensorgram, allowing kₒₙ determination.
6B1 IgG4 was purified from the GS/NS0 cell line of Example 10 as in Example 2. 6B1 single chain Fv was expressed intracellularly in E. coli, refolded in vitro (using the methodology of WO94/18227), and purified to give a homogeneous product. The values of kₒₙ and koff were determined for 6B1 IgG4 for binding to both TGFβ2 and TGFβ3, and for the single-chain Fv 6B1 for binding to TGFβ2. The dissociation constant was calculated by dividing koff by kₒₙ.

[3] = biological target: T2, human lymphotoxin (TNFβ) (human, UniProt P01374 35-205, limits assumed); experiment: ELISA, antigen coated at 10 µg/ml, anti-human Fc alkaline phosphatase conjugate, OD405 nm [a]
T2 sequence (looked up): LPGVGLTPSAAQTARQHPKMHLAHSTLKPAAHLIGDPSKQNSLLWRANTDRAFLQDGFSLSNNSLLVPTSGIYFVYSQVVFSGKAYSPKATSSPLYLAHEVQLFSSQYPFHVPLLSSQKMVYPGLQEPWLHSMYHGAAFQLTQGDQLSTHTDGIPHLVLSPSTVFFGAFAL
Description: (§1) For both FIG. 13(a) and FIG. 13(b), antigens 1 to 15 were used for coating the plate at a concentration of 10 μg/ml in PBS. The TGFbetas were coated at 0.2 μg/ml in PBS. Coating was performed at 4° C. overnight. […] of each antigen was used per well and duplicates of each antigen for each IgG to be tested. IgG samples were incubated with the coated antigens at 37° C. for 2 hours after blocking with 2%. marvel-PBS. The labelled second antibody was a mouse anti-human Fc1 alkaline phosphatase conjugated and the substrate used to detect bound second antibody was PNPP at 1 mg/ml with the absorbance read at 405 nm.

[4] = biological target: human serum albumin (human, UniProt P02768 25-609); experiment: as above
Description: as §1

[5] = biological target: human insulin (human, UniProt P01308 25-54; P01308 90-110, limits assumed); experiment: as above
Description: as §1

[6] = biological target: T3, bovine serum albumin (bovine, UniProt P02769 25-607); experiment: as above
T3 construct: also called BSA
Description: as §1

[7] = biological target: T4, chicken egg white trypsin inhibitor (chicken, UniProt P01005 25-210); experiment: as above
T4 sequence (looked up): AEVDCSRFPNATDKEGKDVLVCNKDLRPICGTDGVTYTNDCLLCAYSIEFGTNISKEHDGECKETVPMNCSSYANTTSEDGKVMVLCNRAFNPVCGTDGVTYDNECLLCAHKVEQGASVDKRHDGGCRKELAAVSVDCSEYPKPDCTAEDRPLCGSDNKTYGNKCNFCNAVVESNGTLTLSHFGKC
Description: as §1

[8] = biological target: hen egg lysozyme (hen, UniProt P00698 19-147); experiment: as above
Description: as §1

[9] = biological target: T5, ovalbumin (UniProt P01012 2-386); experiment: as above
T5 sequence (looked up): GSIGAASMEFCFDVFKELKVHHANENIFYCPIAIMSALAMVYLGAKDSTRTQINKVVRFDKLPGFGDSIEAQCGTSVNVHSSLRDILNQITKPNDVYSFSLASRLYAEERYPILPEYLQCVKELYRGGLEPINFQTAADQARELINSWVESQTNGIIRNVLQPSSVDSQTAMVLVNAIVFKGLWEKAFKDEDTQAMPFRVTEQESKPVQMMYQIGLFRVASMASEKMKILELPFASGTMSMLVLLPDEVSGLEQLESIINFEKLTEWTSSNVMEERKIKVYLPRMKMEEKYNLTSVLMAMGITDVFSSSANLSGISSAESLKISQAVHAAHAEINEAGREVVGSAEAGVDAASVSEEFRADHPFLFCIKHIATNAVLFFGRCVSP
Description: as §1

[10] = biological target: oxazolone-bovine serum albumin (bovine, UniProt P02769 25-607, oxazolone hapten coupled, sites not stated); experiment: as above
Description: as §1

[11] = biological target: T1, recombinant human TGFβ2; experiment: A549 cell radioreceptor assay (nM IgG)
Description: Aliqouts of ¹²⁵I-TGFβ1 or TGFβ2 (70-90 TBq/mmol; Amersham International) at 20 pM are preincubated with antibody in binding medium at room temperature for 1 h. Duplicate samples of 0.5 ml of TGFβ/antibody mixtures are then added to the cell monlayers and are incubated at 37° C. for 1-2 h. Control wells contain TGFβ only. Unbound TGFβ is removed by washing 4 times with Hank's balanced salt solution containing 0.1% BSA. Cells are solubilised in 0.8 ml 25 mM Tris HCl pH 7.5, 10% glycerol, 1% Triton X-100 at room temperature for 20 min. The contents of each well are removed and ¹²⁵I measured in a gamma counter.
The ability of 6B1 IgG4 to inhibit binding of TGFβ isoforms to receptors was measured in a radioreceptor assay as described in example 4.

Chain of human insulin (P01308 25-54 limits assumed, chain 1 of 2): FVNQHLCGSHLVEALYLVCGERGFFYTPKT
Chain of human insulin (P01308 90-110 limits assumed, chain 2 of 2): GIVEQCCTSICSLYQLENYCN
Chain of oxazolone-bovine serum albumin (P02769 25-607 limits assumed): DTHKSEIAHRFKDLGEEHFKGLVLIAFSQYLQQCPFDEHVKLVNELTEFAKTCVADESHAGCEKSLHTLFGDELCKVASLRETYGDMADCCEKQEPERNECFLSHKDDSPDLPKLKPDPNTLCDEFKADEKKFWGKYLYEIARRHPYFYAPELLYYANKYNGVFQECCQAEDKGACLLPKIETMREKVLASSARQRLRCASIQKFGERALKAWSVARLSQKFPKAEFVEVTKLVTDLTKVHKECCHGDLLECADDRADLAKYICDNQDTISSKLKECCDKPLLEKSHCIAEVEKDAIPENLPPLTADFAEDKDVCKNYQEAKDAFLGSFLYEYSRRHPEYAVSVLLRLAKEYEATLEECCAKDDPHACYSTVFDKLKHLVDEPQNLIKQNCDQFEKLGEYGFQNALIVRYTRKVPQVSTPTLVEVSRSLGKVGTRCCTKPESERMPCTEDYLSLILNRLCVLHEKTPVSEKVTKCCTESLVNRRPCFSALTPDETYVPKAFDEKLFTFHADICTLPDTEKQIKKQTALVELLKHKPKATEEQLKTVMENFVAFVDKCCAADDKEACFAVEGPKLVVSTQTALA
T3 sequence (P02769 25-607 limits assumed): as above
Chain of hen egg lysozyme (P00698 19-147): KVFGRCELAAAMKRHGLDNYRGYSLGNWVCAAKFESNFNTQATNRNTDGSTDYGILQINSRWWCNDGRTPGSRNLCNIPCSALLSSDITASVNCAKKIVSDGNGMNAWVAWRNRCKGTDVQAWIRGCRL
Chain of human serum albumin (P02768 25-609 limits assumed): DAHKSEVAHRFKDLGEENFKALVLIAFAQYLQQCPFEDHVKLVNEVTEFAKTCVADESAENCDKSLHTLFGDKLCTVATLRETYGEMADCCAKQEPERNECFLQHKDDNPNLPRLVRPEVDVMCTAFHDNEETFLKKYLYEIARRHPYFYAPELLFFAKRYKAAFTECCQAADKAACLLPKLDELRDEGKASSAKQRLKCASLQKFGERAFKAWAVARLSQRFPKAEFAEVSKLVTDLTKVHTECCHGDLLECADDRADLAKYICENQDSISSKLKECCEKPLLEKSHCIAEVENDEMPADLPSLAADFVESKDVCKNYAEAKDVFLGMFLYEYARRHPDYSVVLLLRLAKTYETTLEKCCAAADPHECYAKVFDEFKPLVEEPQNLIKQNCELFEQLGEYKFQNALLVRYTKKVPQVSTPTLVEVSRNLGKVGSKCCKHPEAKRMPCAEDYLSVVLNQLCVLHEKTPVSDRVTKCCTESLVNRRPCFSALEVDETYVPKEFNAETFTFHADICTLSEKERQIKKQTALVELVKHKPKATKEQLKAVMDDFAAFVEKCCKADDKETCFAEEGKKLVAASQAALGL

B1: 6B1 IgG4 (antibody, V domains shown)
VH: EVQLVESGGGVVQPGRSLRLSCAASGFTFSSYGMHWVRQAPGKGLEWVAVIWYDGSNKYYADSVKGRFTISRDNSKNTLYLQMDSLRAEDTAVYYCGRTLESSLWGQGTLVTVSS
VL: SSELTQDPAVSVALGQTVRITCQGDSLRSYYASWYQQKPGQAPVLVIYGKNNRPSGIPDRFSGSSSGNTASLTITGAQAEDEADYYCNSRDSSSTHRGVFGGGTKLTVLG
notes: Whole antibody: human gamma 4 and human lambda constant regions; FITC-labelled in the human tissue study; also called antibody 6B1
I.C.50 in TF1 assay (neutralisation of TGFβ2 inhibition of TF1 cell proliferation) [1]: 11 nM | Kd [2]: 0.89 nM | binding result [3]: no binding | binding result [4]: no binding | binding result [5]: no binding | binding result [6]: no binding | binding result [7]: no binding | binding result [8]: no binding | binding result [9]: no binding | binding result [10]: no binding | IC50 [11]: 0.05 nM
